Results: publication PMC9482650, “Quantitative fragmentomics allow affinity mapping of interactomes” (Nature Communications, 2022)

B1: KIRREL2, Q6UWL6 (peptide)
chain: PSHPRLQTHV
B2: RTKN, Q9BST9 (peptide)
chain: QPRTWLQSPV

Biological target: T1, DFNB31_2, Q9P202
T1 sequence (Q9P202 274-371, limits assumed, looked up): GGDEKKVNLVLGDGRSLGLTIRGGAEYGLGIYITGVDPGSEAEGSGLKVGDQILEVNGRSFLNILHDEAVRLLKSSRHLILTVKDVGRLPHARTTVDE
Test: holdup assay
Design: key: below the threshold = too weak to quantify, mostly under pKd 3.1 to 4
Settings: plain residues with an end cap or a label only (N-terminal biotin on a linker: ado-ado)

Binder	pKd
B1	below the threshold

Same assay, conditions: plain residues with an end cap or a label only (N-terminal biotin on a linker: ahx)

Binder	pKd
B2	below the threshold

Biological target: T2, DFNB31_3, Q9P202
T2 sequence (Q9P202 811-907, limits assumed, looked up): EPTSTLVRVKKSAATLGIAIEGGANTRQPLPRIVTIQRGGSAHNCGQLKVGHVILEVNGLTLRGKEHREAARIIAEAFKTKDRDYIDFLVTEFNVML
Test: holdup assay
Design: key: below the threshold = too weak to quantify, mostly under pKd 3.1 to 4
Settings: plain residues with an end cap or a label only (N-terminal biotin on a linker: ado-ado)

Binder	pKd
B1	4

Same assay, conditions: plain residues with an end cap or a label only (N-terminal biotin on a linker: ahx)

Binder	pKd
B2	below the threshold

Biological target: DLG1_1, Q12959
Test: holdup assay
Design: key: below the threshold = too weak to quantify, mostly under pKd 3.1 to 4
Settings: plain residues with an end cap or a label only (N-terminal biotin on a linker: ado-ado)

Binder	pKd
B1	4.24

Same assay, conditions: plain residues with an end cap or a label only (N-terminal biotin on a linker: ahx)

Binder	pKd
B2	3.74

Biological target: T3, DLG3_3, Q92796
T3 sequence (Q92796 374-475, limits assumed, looked up): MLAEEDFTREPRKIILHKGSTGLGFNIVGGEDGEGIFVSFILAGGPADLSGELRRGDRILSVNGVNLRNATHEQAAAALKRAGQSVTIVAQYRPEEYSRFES
Test: holdup assay
Design: key: below the threshold = too weak to quantify, mostly under pKd 3.1 to 4
Settings: plain residues with an end cap or a label only (N-terminal biotin on a linker: ado-ado)

Binder	pKd
B1	3.75

Same assay, conditions: plain residues with an end cap or a label only (N-terminal biotin on a linker: ahx)

Binder	pKd
B2	4.41

Biological target: T4, DVL3, Q92997
T4 sequence (Q92997 244-331, limits assumed, looked up): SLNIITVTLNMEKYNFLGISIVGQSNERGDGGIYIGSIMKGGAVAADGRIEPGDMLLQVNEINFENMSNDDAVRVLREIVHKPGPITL
Test: holdup assay
Design: key: below the threshold = too weak to quantify, mostly under pKd 3.1 to 4
Settings: plain residues with an end cap or a label only (N-terminal biotin on a linker: ado-ado)

Binder	pKd
B1	below the threshold

Same assay, conditions: plain residues with an end cap or a label only (N-terminal biotin on a linker: ahx)

Binder	pKd
B2	below the threshold

Biological target: FRMPD3, Q5JV73
Sequence (Q5JV73 12-100): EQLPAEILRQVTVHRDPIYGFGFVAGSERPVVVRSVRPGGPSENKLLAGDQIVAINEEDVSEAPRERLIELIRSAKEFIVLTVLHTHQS
Test: holdup assay
Design: key: below the threshold = too weak to quantify, mostly under pKd 3.1 to 4
Settings: plain residues with an end cap or a label only (N-terminal biotin on a linker: ado-ado)

Binder	pKd
B1	below the threshold

Same assay, conditions: plain residues with an end cap or a label only (N-terminal biotin on a linker: ahx)

Binder	pKd
B2	below the threshold

Biological target: T5, GRIP1_5, Q9Y3R0
T5 sequence (Q9Y3R0 568-668, limits assumed, looked up): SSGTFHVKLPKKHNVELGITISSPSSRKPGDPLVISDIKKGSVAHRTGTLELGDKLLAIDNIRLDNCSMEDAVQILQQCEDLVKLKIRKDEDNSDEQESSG
Test: holdup assay
Design: key: below the threshold = too weak to quantify, mostly under pKd 3.1 to 4
Settings: plain residues with an end cap or a label only (N-terminal biotin on a linker: ado-ado)

Binder	pKd
B1	below the threshold

Same assay, conditions: plain residues with an end cap or a label only (N-terminal biotin on a linker: ahx)

Binder	pKd
B2	below the threshold

Biological target: T6, GRIP1_7, Q9Y3R0
T6 sequence (Q9Y3R0 999-1096, limits assumed, looked up): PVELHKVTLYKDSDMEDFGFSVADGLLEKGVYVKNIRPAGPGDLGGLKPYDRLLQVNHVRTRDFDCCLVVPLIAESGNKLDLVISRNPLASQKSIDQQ
Test: holdup assay
Design: key: below the threshold = too weak to quantify, mostly under pKd 3.1 to 4
Settings: plain residues with an end cap or a label only (N-terminal biotin on a linker: ado-ado)

Binder	pKd
B1	below the threshold

Same assay, conditions: plain residues with an end cap or a label only (N-terminal biotin on a linker: ahx)

Binder	pKd
B2	below the threshold

Biological target: GRIP2_6, Q9C0E4
Sequence (Q9C0E4 648-740): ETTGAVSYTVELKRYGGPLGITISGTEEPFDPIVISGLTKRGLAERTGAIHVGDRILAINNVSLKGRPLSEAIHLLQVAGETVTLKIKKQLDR
Test: holdup assay
Design: key: below the threshold = too weak to quantify, mostly under pKd 3.1 to 4
Settings: plain residues with an end cap or a label only (N-terminal biotin on a linker: ado-ado)

Binder	pKd
B1	below the threshold

Same assay, conditions: plain residues with an end cap or a label only (N-terminal biotin on a linker: ahx)

Binder	pKd
B2	below the threshold

Biological target: IL16_3, Q14005
Sequence (Q14005 1107-1207): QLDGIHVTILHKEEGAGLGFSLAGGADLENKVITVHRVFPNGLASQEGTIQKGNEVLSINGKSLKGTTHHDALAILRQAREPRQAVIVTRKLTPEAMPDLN
Test: holdup assay
Design: key: below the threshold = too weak to quantify, mostly under pKd 3.1 to 4
Settings: plain residues with an end cap or a label only (N-terminal biotin on a linker: ado-ado)

Binder	pKd
B1	below the threshold

Same assay, conditions: plain residues with an end cap or a label only (N-terminal biotin on a linker: ahx)

Binder	pKd
B2	below the threshold

Biological target: Inadl_4, Q8NI35
Sequence (Q8NI35 547-651): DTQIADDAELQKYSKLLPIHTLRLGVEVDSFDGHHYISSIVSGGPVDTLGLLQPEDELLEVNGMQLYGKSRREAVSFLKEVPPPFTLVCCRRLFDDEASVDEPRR
Test: holdup assay
Design: key: below the threshold = too weak to quantify, mostly under pKd 3.1 to 4
Settings: plain residues with an end cap or a label only (N-terminal biotin on a linker: ado-ado)

Binder	pKd
B1	below the threshold

Same assay, conditions: plain residues with an end cap or a label only (N-terminal biotin on a linker: ahx)

Binder	pKd
B2	below the threshold

Biological target: LIMK2, P53671
Sequence (P53671 143-248): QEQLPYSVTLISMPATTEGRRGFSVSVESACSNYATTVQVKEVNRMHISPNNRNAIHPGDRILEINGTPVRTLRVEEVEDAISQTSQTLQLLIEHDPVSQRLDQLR
Test: holdup assay
Design: key: below the threshold = too weak to quantify, mostly under pKd 3.1 to 4
Settings: plain residues with an end cap or a label only (N-terminal biotin on a linker: ado-ado)

Binder	pKd
B1	below the threshold

Same assay, conditions: plain residues with an end cap or a label only (N-terminal biotin on a linker: ahx)

Binder	pKd
B2	below the threshold

Biological target: T7, LIN7C, Q9NUP9
T7 sequence (Q9NUP9 88-185, limits assumed, looked up): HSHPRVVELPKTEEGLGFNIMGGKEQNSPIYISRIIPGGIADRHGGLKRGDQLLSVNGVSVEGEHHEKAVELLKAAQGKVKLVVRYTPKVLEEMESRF
Test: holdup assay
Design: key: below the threshold = too weak to quantify, mostly under pKd 3.1 to 4
Settings: plain residues with an end cap or a label only (N-terminal biotin on a linker: ado-ado)

Binder	pKd
B1	4

Same assay, conditions: plain residues with an end cap or a label only (N-terminal biotin on a linker: ahx)

Binder	pKd
B2	below the threshold

Biological target: LNX1_1, Q8TBB1
Sequence (Q8TBB1 261-371): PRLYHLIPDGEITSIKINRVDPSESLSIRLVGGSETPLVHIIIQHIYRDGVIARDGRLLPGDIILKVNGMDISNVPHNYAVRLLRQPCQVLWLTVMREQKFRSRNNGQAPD
Test: holdup assay
Design: key: below the threshold = too weak to quantify, mostly under pKd 3.1 to 4
Settings: plain residues with an end cap or a label only (N-terminal biotin on a linker: ado-ado)

Binder	pKd
B1	below the threshold

Same assay, conditions: plain residues with an end cap or a label only (N-terminal biotin on a linker: ahx)

Binder	pKd
B2	below the threshold

Biological target: T8, LNX2_2, Q8N448
T8 sequence (Q8N448 334-432, limits assumed, looked up): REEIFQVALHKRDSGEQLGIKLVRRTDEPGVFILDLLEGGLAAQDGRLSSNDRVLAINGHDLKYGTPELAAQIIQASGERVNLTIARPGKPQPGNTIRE
Test: holdup assay
Design: key: below the threshold = too weak to quantify, mostly under pKd 3.1 to 4
Settings: plain residues with an end cap or a label only (N-terminal biotin on a linker: ado-ado)

Binder	pKd
B1	3.5

Same assay, conditions: plain residues with an end cap or a label only (N-terminal biotin on a linker: ahx)

Binder	pKd
B2	below the threshold

Biological target: T9, LNX2_3, Q8N448
T9 sequence (Q8N448 463-564, limits assumed, looked up): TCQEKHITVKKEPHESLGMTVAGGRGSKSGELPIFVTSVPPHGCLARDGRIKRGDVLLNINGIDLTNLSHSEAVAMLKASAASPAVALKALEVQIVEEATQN
Test: holdup assay
Design: key: below the threshold = too weak to quantify, mostly under pKd 3.1 to 4
Settings: plain residues with an end cap or a label only (N-terminal biotin on a linker: ado-ado)

Binder	pKd
B1	below the threshold

Same assay, conditions: plain residues with an end cap or a label only (N-terminal biotin on a linker: ahx)

Binder	pKd
B2	below the threshold

Biological target: MAGI1_2, Q96QZ7
Sequence (Q96QZ7 456-580): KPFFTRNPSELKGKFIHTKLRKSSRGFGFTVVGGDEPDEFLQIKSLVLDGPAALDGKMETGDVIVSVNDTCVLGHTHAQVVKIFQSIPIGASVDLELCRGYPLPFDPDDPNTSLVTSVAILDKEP
Test: holdup assay
Design: key: below the threshold = too weak to quantify, mostly under pKd 3.1 to 4
Settings: plain residues with an end cap or a label only (N-terminal biotin on a linker: ado-ado)

Binder	pKd
B1	4.85

Same assay, conditions: plain residues with an end cap or a label only (N-terminal biotin on a linker: ahx)

Binder	pKd
B2	4.83

Biological target: MAGI2_3, Q86UL8
Sequence (Q86UL8 600-682): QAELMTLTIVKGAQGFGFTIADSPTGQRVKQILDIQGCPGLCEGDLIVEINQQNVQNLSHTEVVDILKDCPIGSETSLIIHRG
Test: holdup assay
Design: key: below the threshold = too weak to quantify, mostly under pKd 3.1 to 4
Settings: plain residues with an end cap or a label only (N-terminal biotin on a linker: ado-ado)

Binder	pKd
B1	3.67

Same assay, conditions: plain residues with an end cap or a label only (N-terminal biotin on a linker: ahx)

Binder	pKd
B2	below the threshold

Biological target: T10, MPP2, Q14168
T10 sequence (Q14168 180-250, limits assumed, looked up): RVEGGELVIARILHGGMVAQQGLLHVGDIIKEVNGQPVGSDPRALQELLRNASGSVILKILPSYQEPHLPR
Test: holdup assay
Design: key: below the threshold = too weak to quantify, mostly under pKd 3.1 to 4
Settings: plain residues with an end cap or a label only (N-terminal biotin on a linker: ado-ado)

Binder	pKd
B1	below the threshold

Same assay, conditions: plain residues with an end cap or a label only (N-terminal biotin on a linker: ahx)

Binder	pKd
B2	below the threshold

Biological target: T11, NHERF3_1, Q5T2W1
T11 sequence (Q5T2W1 4-100, limits assumed, looked up): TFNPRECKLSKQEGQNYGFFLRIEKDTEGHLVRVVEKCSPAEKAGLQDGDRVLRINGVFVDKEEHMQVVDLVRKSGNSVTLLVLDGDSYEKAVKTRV
Test: holdup assay
Design: key: below the threshold = too weak to quantify, mostly under pKd 3.1 to 4
Settings: plain residues with an end cap or a label only (N-terminal biotin on a linker: ado-ado)

Binder	pKd
B1	4.57

Same assay, conditions: plain residues with an end cap or a label only (N-terminal biotin on a linker: ahx)

Binder	pKd
B2	4.29

Biological target: NHERF4_1, Q86UT5-2
Sequence (Q86UT5 other isoform, or with tags, fused parts or gaps): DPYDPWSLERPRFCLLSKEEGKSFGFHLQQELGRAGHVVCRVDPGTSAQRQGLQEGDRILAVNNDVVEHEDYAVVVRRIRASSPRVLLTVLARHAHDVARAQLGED
Test: holdup assay
Design: key: below the threshold = too weak to quantify, mostly under pKd 3.1 to 4
Settings: plain residues with an end cap or a label only (N-terminal biotin on a linker: ado-ado)

Binder	pKd
B1	3.62

Same assay, conditions: plain residues with an end cap or a label only (N-terminal biotin on a linker: ahx)

Binder	pKd
B2	below the threshold

Biological target: T12, PTPN13_1, Q12923
T12 sequence (Q12923 1088-1188, limits assumed, looked up): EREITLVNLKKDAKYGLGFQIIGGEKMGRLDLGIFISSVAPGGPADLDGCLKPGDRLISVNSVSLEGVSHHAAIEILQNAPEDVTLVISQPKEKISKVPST
Test: holdup assay
Design: key: below the threshold = too weak to quantify, mostly under pKd 3.1 to 4
Settings: plain residues with an end cap or a label only (N-terminal biotin on a linker: ado-ado)

Binder	pKd
B1	below the threshold

Same assay, conditions: plain residues with an end cap or a label only (N-terminal biotin on a linker: ahx)

Binder	pKd
B2	below the threshold

Biological target: PTPN3, P26045
Sequence (P26045 505-587): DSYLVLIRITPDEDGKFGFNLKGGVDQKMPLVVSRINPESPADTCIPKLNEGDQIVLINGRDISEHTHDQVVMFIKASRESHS
Test: holdup assay
Design: key: below the threshold = too weak to quantify, mostly under pKd 3.1 to 4
Settings: plain residues with an end cap or a label only (N-terminal biotin on a linker: ado-ado)

Binder	pKd
B1	4.13

Same assay, conditions: plain residues with an end cap or a label only (N-terminal biotin on a linker: ahx)

Binder	pKd
B2	3.78

Biological target: SCRIB_2, Q14160
Sequence (Q14160 857-960): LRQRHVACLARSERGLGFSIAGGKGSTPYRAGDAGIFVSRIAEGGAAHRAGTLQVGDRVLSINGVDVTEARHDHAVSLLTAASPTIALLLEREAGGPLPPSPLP
Test: holdup assay
Design: key: below the threshold = too weak to quantify, mostly under pKd 3.1 to 4
Settings: plain residues with an end cap or a label only (N-terminal biotin on a linker: ado-ado)

Binder	pKd
B1	3.76

Same assay, conditions: plain residues with an end cap or a label only (N-terminal biotin on a linker: ahx)

Binder	pKd
B2	below the threshold

Biological target: SCRIB_3, Q14160
Sequence (Q14160 999-1103): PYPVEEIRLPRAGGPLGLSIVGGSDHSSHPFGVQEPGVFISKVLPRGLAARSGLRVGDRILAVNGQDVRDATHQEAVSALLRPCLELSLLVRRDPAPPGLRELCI
Test: holdup assay
Design: key: below the threshold = too weak to quantify, mostly under pKd 3.1 to 4
Settings: plain residues with an end cap or a label only (N-terminal biotin on a linker: ado-ado)

Binder	pKd
B1	4.26

Same assay, conditions: plain residues with an end cap or a label only (N-terminal biotin on a linker: ahx)

Binder	pKd
B2	3.67

Biological target: TJP2_1, Q9UDY2
Sequence (Q9UDY2 24-128): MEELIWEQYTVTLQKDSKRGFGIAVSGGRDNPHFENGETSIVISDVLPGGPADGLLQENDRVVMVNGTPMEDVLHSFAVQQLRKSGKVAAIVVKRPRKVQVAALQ
Test: holdup assay
Design: key: below the threshold = too weak to quantify, mostly under pKd 3.1 to 4
Settings: plain residues with an end cap or a label only (N-terminal biotin on a linker: ado-ado)

Binder	pKd
B1	4.58

Same assay, conditions: plain residues with an end cap or a label only (N-terminal biotin on a linker: ahx)

Binder	pKd
B2	below the threshold
